± gives the standard error. For some of these results: This sample holds only a part of the variants without activity.
B1: glmS ribozyme (parent)
chain: AUAAAAGCGCCAGAACUACAGAAAUGUAGUUGACGAGGAGGAGGUUUAUCGAAUUUUCGGCGGAUGCCUCCAAA

Experiments:
Settings in all cases: with glucosamine-6-phosphate
glucosamine-6-phosphate [1] = variants of: B1; assay: kcat; higher = faster cleavage; RNA array
In short: (§1)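 E. coli RNA polymerase transcribed barcoded ribozyme variants in situ on sequenced MiSeq chips, which were tracked via a hybridised Cy3 probe at 37 °C. Tiles were imaged over ~14 h after glucosamine-6-phosphate (40 μM to 10 mM) in HEPES/KCl/Mg(OAc)2 buffer was flowed in. Normalised per-tile medians were fit to one- or two-exponential decays for kobs, and kcat and KM came from weighted Michaelis–Menten fits.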

glucosamine-6-phosphate [2] = variants of: B1; assay: KM; higher = weaker cofactor use; RNA array
In short: as §1

glucosamine-6-phosphate [3] = variants of: B1; assay: self-cleavage kobs at 160 uM GlcN6P; higher = faster cleavage; RNA array
In short: as §1

glucosamine-6-phosphate [4] = variants of: B1; assay: self-cleavage kobs at 640 uM GlcN6P; higher = faster cleavage; RNA array
In short: as §1

glucosamine-6-phosphate [5] = variants of: B1; assay: self-cleavage kobs at 2500 uM GlcN6P; higher = faster cleavage; RNA array
In short: as §1

glucosamine-6-phosphate [6] = variants of: B1; assay: self-cleavage kobs at 10000 uM GlcN6P; higher = faster cleavage; RNA array
In short: as §1

glucosamine-6-phosphate [7] = variants of: B1; assay: self-cleavage kobs at 40 uM GlcN6P; higher = faster cleavage; RNA array
In short: as §1

Variant	kcat (glucosamine-6-phosphate [1]) [s⁻¹]	KM (glucosamine-6-phosphate [2]) [µM]	self-cleavage kobs at 160 uM GlcN6P (glucosamine-6-phosphate [3]) [s⁻¹]	self-cleavage kobs at 640 uM GlcN6P (glucosamine-6-phosphate [4]) [s⁻¹]	self-cleavage kobs at 2500 uM GlcN6P (glucosamine-6-phosphate [5]) [s⁻¹]	self-cleavage kobs at 10000 uM GlcN6P (glucosamine-6-phosphate [6]) [s⁻¹]	self-cleavage kobs at 40 uM GlcN6P (glucosamine-6-phosphate [7]) [s⁻¹]
AUAAAAGCGCCAAAACUACAGAAAUGUAGUUGACGAGGAGGAGGUUUAUCGAGUUUUCGGCGGAUGCCUCCAAA [G13A A53G]	0.00138 ± 0.00018	4280 ± 820	6.12e-05 ± 1.3e-05	0.00017 ± 2e-05	0.000498 ± 5.7e-05	0.000981 ± 0.00011	
AUAAAAGCGCCAAAACUACAGAAAUGUAGUUAACGAGGAGGAGGUUUAUCGAAUUUUCGGCGGAUGCCUCCAAA [G13A G32A]	0.00473 ± 0.0013	4730 ± 1900	0.000204 ± 6.5e-05	0.000518 ± 0.00011	0.00129 ± 0.00022	0.00362 ± 0.00047	4.73e-05 ± 7.3e-06
AUAAAAGCGCCAAACCUACAGAAAUGUAGUUGACGAGGAGGAGGUUUAUCGAAUUUUCGGCGGAUGCCUCCAAA [G13A A15C]	0.000242 ± 3.2e-05	2680 ± 760		5.24e-05 ± 1.1e-05	9.3e-05 ± 2.5e-05	0.000198 ± 2.6e-05	
AUAAAAGCGCCAAAACUACAGAAAUGUAGUUGACGAGGAGGAGGUUUAUCGAAUUUUCGGCGGAUGCCUCCAAA [G13A]	0.00142 ± 0.00018	4830 ± 750	4.65e-05 ± 1.7e-06	0.000162 ± 3.8e-06	0.00057 ± 3.3e-05	0.000945 ± 3.6e-05	1.56e-05 ± 1.7e-06
AUAAAAGCGCCAAAACUACAGAAAUGUAGUUGACGCGGAGGAGGUUUAUCGAAUUUUCGGCGGAUGCCUCCAAA [G13A A36C]	< 1e-05					< 1e-05	
AUAAAAGCGCCUGAACUACAGAAAUGUAGUUGACGAGGAGGAGGUUUAUCGAAUUUUCGGCGGAUGCCGCCAAA [A12U U69G]	0.000139 ± 1.8e-05	437 ± 200	2.7e-05 ± 8.8e-06	9.2e-05 ± 1e-05	0.000109 ± 1e-05	0.000145 ± 1.5e-05	2.68e-05 ± 8.8e-06
AUAAAAGCGCCUGAACUACAGAAAUGUAGUUGACGAGGAGGAGUUUUAUCGAAUUUUCGGCGGAUGCCUCCAAA [A12U G44U]	0.000852 ± 0.00012	1290 ± 350	7.54e-05 ± 1.9e-05	0.000264 ± 4.7e-05	0.000645 ± 0.0001	0.000739 ± 8e-05	3.83e-05 ± 8.2e-06
AUAAAAGCGCCAAAAGUACAGAAAUGUAGUUGACGAGGAGGAGGUUUAUCGAAUUUUCGGCGGAUGCCUCCAAA [G13A C16G]	0.000217 ± 1.4e-05	1970 ± 290		5.02e-05 ± 1.2e-05	0.000131 ± 2.4e-05	0.000178 ± 2.5e-05	
AUAAAAGCGCCAAAAUUACAGAAAUGUAGUUGACGAGGAGGAGGUUUAUCGAAUUUUCGGCGGAUGCCUCCAAA [G13A C16U]	0.000763 ± 9.4e-05	2220 ± 460	4.29e-05 ± 1.2e-05	0.000172 ± 2.2e-05	0.000459 ± 5.5e-05	0.000577 ± 7.9e-05	
AUAAAAGCGCCAAAACUACAGAAAUGUAAUUGACGAGGAGGAGGUUUAUCGAAUUUUCGGCGGAUGCCUCCAAA [G13A G29A]	0.000248 ± 8.5e-06	4980 ± 320			8.32e-05 ± 1.2e-05	0.000165 ± 2.4e-05	
AUAAAAGCGCCUGAACUACAGAAAUGUAGUCGACGAGGAGGAGGUUGAUCGAAUUUUCGGCGGAUGCCUCCAAA [A12U U31C U47G]	0.00222 ± 0.00076	5110 ± 2400	8.69e-05 ± 1.9e-05	0.000212 ± 4.5e-05	0.000645 ± 0.00015	0.00156 ± 0.00026	4.15e-05 ± 1.7e-05
AUAAAAGCGCCUGAACUACAGAAAUGUAGUUGACGAGGAGGAGGUUUAUCGAAUUUUCGACGGAUGCCUCCAAA [A12U G60A]	8.33e-05 ± 8e-06	2040 ± 700		2.88e-05 ± 1.4e-05	4.12e-05 ± 1e-05	7.02e-05 ± 8.4e-06	
AUAAAAGCGCCUGAACUACAGAAAUGUAGUUGACGAGGAGGAGGUUUAUCGAAUUUUCGUCGGAUGCCUCCAAA [A12U G60U]	1.13e-05 ± 1.6e-06		< 1e-05			< 1e-05	< 1e-05
AUAAAAGCGCCUGAACUACAGAAAUGUAGUUGACGAGGAGGAGGUUUAGCGAAUUUUCGGCGGAUGCCUCCAAA [A12U U49G]	0.00213 ± 0.00037	2950 ± 780	9.35e-05 ± 1.5e-05	0.000495 ± 7.3e-05	0.000912 ± 0.00012	0.00167 ± 0.00018	3.38e-05 ± 7.4e-06

Source: the supplement of paper PMC7125110
